From PMC7401798

Tests used:
HIS-TAN1-GFP (maize) = assay: pull-down
[1] = biological target: Taxol-stabilized microtubules (UniProt P02550); assay: co-sedimentation

Chain of HIS-TAN1-GFP (natural protein) (C0PM98 whole entry): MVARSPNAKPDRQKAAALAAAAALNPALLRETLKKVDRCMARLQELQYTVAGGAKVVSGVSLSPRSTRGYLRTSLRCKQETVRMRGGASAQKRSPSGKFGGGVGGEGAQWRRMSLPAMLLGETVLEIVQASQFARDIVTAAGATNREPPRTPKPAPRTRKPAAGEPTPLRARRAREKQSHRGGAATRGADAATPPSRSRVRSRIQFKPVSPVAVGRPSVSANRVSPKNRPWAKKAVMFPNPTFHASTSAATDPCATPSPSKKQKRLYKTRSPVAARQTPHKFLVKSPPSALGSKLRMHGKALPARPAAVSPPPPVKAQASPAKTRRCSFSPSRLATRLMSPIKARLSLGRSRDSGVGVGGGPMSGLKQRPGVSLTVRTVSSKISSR
Chain of HIS-TAN1-GFP (maize) (C0PM98 whole entry): as above
Chain of Atto488-tagged HIS-TAN1-GFP (natural protein) (C0PM98 whole entry): as above

apparent affinity [1] [µM] | Substance | further results
 | tubulin dimers (from UniProt P02550 1-451) (complex) | stoichiometry N (tubulin dimers per HIS-TAN1-GFP) (HIS-TAN1-GFP (maize)): 2
0.595 | HIS-TAN1-GFP (natural protein) | 
 | 6xHIS-tagged ZmTAN1 (TANGLED1) (natural protein) | K0.5 [1]: 1.08 µM
0.05 | Atto488-tagged HIS-TAN1-GFP (natural protein) | 
